According to patent US11813311B2, “Treatment and prevention of metabolic diseases” (Singapore Health Services PTE LTD., priority 2019, dated 2023):
“Also recorded” adds a separate entry of the source.

What was measured:
[1] = system: primary human hepatocytes; assay: Palmitate loading (lipotoxicity) of primary human hepatocytes; type: cell-based; conditions: palmitate:BSA 6:1
Procedure: Palmitate:BSA conjugated solution in the ratio of 6:1 was prepared as described earlier (Alsabeeh et al., 2018). Palmitate (0.5 mM) conjugated in fatty acids free BSA was used to treated cells as described in figure legends; 0.5% BSA solution was used as control. […]
Primary human hepatocytes were seeded on 8-well chamber slides (1×10^4 cells/well). For this experiment, cells were not serum-starved prior to palmitate treatment. 24 hours following palmitate stimulation, cells were washed, incubated with 25 μM of DCFDA solution (ab113851, Abcam) for 45 minutes at 37° C. in the dark, and rinsed with dilution buffer according to the manufacturer's protocol. Live cells with positive DCF staining were imaged with filter set appropriate for fluorescein (FITC) using a fluorescence microscope (Leica). […]
(§1) Western blots were carried out on total protein extracts from hepatocytes and liver tissues. Hepatocyte and liver tissue lysates were homogenized in RIPA Lysis and Extraction Buffer (89901, Thermo Scientific) containing protease and phosphatase inhibitors (Roche). Protein lysates were separated by SDS-PAGE and transferred to PVDF membranes. Protein bands were visualized using the ECL detection system (Pierce) with the appropriate secondary antibodies: anti-rabbit HRP or anti-mouse HRP.

HSCs = assay: IL-11 expression and secretion by HSCs (RNA-seq, ELISA); type: cell-based, human; conditions: for IL-11 secretion from HSCs: ELISA
Text: TGFβ1 stimulation of human hepatic stellate cells and antibody treatment in HFMCD: Sequenced libraries were demultiplexed using bcl2fastq v2.19.0.316 with the-no-lane-splitting option. Adapter sequences were then trimmed using trimmomatic^6 v0.36 in paired end mode with the options MAXINFO:35:0.5 MINLEN:35. Trimmed reads were aligned to the Homo sapiens GRCh38 using STAR′ v. 2.2.1 with the options—outFilterType BySJout-outFilterMultimapNmax 20-alignSJoverhangMin 8-alignSJDBoverhangMin 1-outFilterMismatchNmax 999-alignIntronMin 20-alignIntronMax 1000000-alignMatesGapMax 1000000 in paired end, single pass mode. Only unique alignments were retained for counting. Counts were calculated at the gene level using the FeatureCounts module from subread^8v. 1.5.1, with the options -O-s 2-J-T 8-p-R-G. The Ensembl release 86 hg38 GTF was used as annotation to prepare STAR indexes and for FeatureCounts.
The levels of IL-11 and MMP-2 in equal volumes of cell culture media were quantified using Human IL-11 Quantikine ELISA kit (D1100, R&D Systems) and Total MMP-2 Quantikine ELISA kit (MMP200, R&D Systems), respectively. Total secreted collagen in the cell culture supernatant was quantified using Sirius red collagen detection kit (9062, Chondrex). Total hydroxyproline content in the livers was measured using Quickzyme Total Collagen assay kit (Quickzyme Biosciences). Mouse serum levels of alanine aminotransferease (ALT), cholesterol, and triglycerides were measured using Alanine Transaminase Activity Assay Kit (ab105134, abcam), Cholesterol Assay Kit (ab65390, abcam), and Triglyceride Assay Kit (ab65336, abcam), respectively. Liver Triglycerides (TG) measurements were performed using triglyceride colorimetric assay kit (Ser. No. 10/010,303, Cayman). All ELISA and colorimetric assays were performed according to the manufacturer's protocol.

[2] = system: primary human hepatocytes; assay: Stimulation of primary human hepatocytes with IL11, hyperIL11, hyperIL6; type: cell-based; conditions: for ERK and JNK (non-canonical signaling) activation: 2.5 ng/ml to 20 ng/ml
Procedure: Human hepatocytes (5200, ScienCell) were grown and maintained in hepatocyte media (5201, ScienCell) supplemented with 2% fetal bovine serum (FBS) and 1% Penicillin-streptomycin.
Primary human hepatocytes (5200, ScienCell) were maintained in hepatocyte medium ([…], ScienCell) supplemented with 2% fetal bovine serum, 1% Penicillin-streptomycin at 37° C. and 5% CO2. Hepatocytes (P2-P3) were serum-starved overnight unless otherwise specified in the methods prior to 24 hours stimulation with different doses of various recombinant proteins as described.
For surface IL11RA, IL6R, and gp130 analysis, primary human hepatocytes and THP-1 cells were stained with IL11RA, IL6R, or gp130 antibody and the corresponding Alexa Fluor 488 secondary antibody. Cell death analysis was performed by staining primary human hepatocytes with Dead Cell Apoptosis Kit with Annexin V FITC and PI (V13242, Thermo Fisher). PI+ve cells were then quantified with the flow cytometer (Fortessa, BD Biosciences) and analyzed with FlowJo version X software (TreeStar).
Alanine Aminotransferase (ALT) activity in the cell culture supernatant and mouse serum was measured using ALT Activity Assay Kit (ab105134, Abcam). Liver Glutathione (GSH) levels were measured using Glutathione Colorimetric Detection Kit (EIAGSHC, Thermo Fisher). Total hydroxyproline content in mouse livers was measured using Quickzyme Total Collagen assay kit (QZBtotco15, Quickzyme Biosciences). The levels of serum and liver triglycerides were measured using Triglyceride Assay Kit (ab65336, Abcam). Mouse serum levels of Aspartate Aminotransferase (AST) and cholesterol were measured using AST Assay Kit (ab105135, Abcam) and Cholesterol Assay Kit (ab65390; Abcam), respectively. All colorimetric assays were performed according to the manufacturer's protocol.
as §1

[3] = system: wild-type C57BL/6J and Col1a1-GFP reporter mice; assay: Daily subcutaneous injection of recombinant mouse IL-11; type: in vivo
Procedure: Recombinant mouse IL-11 (rmIL11) was reconstituted to a concentration of 50 μg ml^−1 in saline. Ten-week-old male wild-type C57BL/6J mice received daily subcutaneous injection of either 100 μg kg^−1 of rmIL11 in saline (n=19) or an identical volume of saline (n=15) for 21 days.
Ten week old male Col1a1-GFP reporter mice 19 and wild-type C57BL/6J mice received daily subcutaneous injection of either 100 μg/kg of recombinant mouse Il-11 (rmIl-11) or identical volume of saline for 21 days.

CCCCCCCCCCCCCCCC(=O)O [palmitate, Palmitate, reference compound]
IL11 secretion, FC vs control [1]: 28

CCL2: human CCL2 recombinant protein, NASH stimulus
IL-11 secretion from HSCs (HSCs): induce IL-11 secretion

PDGF
IL-11 secretion from HSCs (HSCs): induce IL-11 secretion

TGFβ1: human TGFβ1 recombinant protein, pro-fibrotic stimulus [reference compound]
IL-11 secretion from hepatocytes ([2]; TGFβ1 5 ng/ml, 24 h): robustly secreted IL-11 | IL-11 upregulation in HSCs (RNA-seq) (HSCs; TGFβ1 5 ng/ml, 24 h): 14.9 fold

angiotensin II: human angiotensin (Sigma-Aldrich), NASH stimulus (DRVYIHPF; Angiotensin-2; UniProt P01019 25-32, looked up)
IL-11 secretion from HSCs (HSCs): induce IL-11 secretion

bFGF: human bFGF recombinant protein, NASH stimulus
IL-11 secretion from HSCs (HSCs): induce IL-11 secretion

hyperIL6: IL6R:IL6 fusion protein, synthetic IL6 trans-signaling construct (R&D systems) [reference compound]
ERK and JNK (non-canonical signaling) activation ([2]; 24 h): did not activate | ALT in the media, fold change (FC) ([2]; 20 ng/ml): 0.9 | STAT3 activation ([2]; dose range, 24 h): dose-dependently induced STAT3 activation

B1: sIL11RA: soluble IL11RA, human IL11RA (R&D systems), to potentiate putative trans-signaling (protein, UniProt Q14626 24-370, looked up)
extracellular domain: SPCPQAWGPPGVQYGQPGRSVKLCCPGVTAGDPVSWFRDGEPKLLQGPDSGLGHELVLAQADSTDEGTYICQTLDGALGGTVTLQLGYPPARPVVSCQAADYENFSCTWSPSQISGLPTRYLTSYRKKTVLGADSQRRSPSTGPWPCPQDPLGAARCVVHGAEFWSQYRINVTEVNPLGASTRLLDVSLQSILRPDPPQGLRVESVPGYPRRLRASWTYPASWPCQPHFLLKFRLQYRPAQHPAWSTVEPAGLEEVITDAVAGLPHAVRVSARDFLDAGTWSTWSPEAWGTPSTGTIPKEIPAWGQLHTQPEVEPQVDSPAPPRPSLQPHPRLLDHRDSVEQVAVLA
modifications: extracellular domain
IL11-induced hepatocyte death and signaling ([2]; IL11 20 ng/ml, sgp130 or sIL11RA 1 μg/ml): unaffected | ALT release from IL11-stimulated hepatocytes ([2]; increasing doses of sgp130 or sIL11RA): no effect | IL11 dose-dependent hepatocyte cell death on addition of decoy ([2]; sgp130 or sIL11RA 1 μg/ml): unaffected

B2: rmIL11: Recombinant mouse IL-11 (UniProtKB: P47873) (protein)
chain: PGPPAGSPRVSSDPRADLDSAVLLTRSLLADTRQLAAQMRDKFPADGDHSLDSLPTLAMSAGTLGSLQLPGVLTRLRVDLMSYLRHVQWLRRAGGPSLKTLEPELGALQARLERLLRRLQLLMSRLALPQAAPDQPVIPLGPPASAWGSIRAAHAILGGLHLTLDWAVRGLLLLKTRL
expression of key pro-fibrotic and pro-inflammatory genes ([3]; 100 μg/kg daily s.c., 21 days): increased | hepatic collagen content ([3]; 100 μg/kg daily s.c., 21 days): increased | serum alanine aminotransferase (ALT) ([3]; 100 μg/kg daily s.c., 21 days): increased | weight gain ([3]; 100 μg/kg daily s.c., 21 days, vs saline): slowed normal mouse weight gain progression; also recorded: gained less weight | Col1a1+ve myofibroblasts in the liver ([3]; Col1a1-GFP reporter mice): accumulated GFP-expressing Col1a1^+ve myofibroblasts in the liver

B3: hyperIL11: IL11RA:IL11 fusion protein mimicking the trans-signalling complex, SEQ ID NO:21 (protein)
chain: MSSSCSGLSRVLVAVATALVSASSPCPQAWGPPGVQYGQPGRSVKLCCPGVTAGDPVSWFRDGEPKLLQGPDSGLGHELVLAQADSTDEGTYICQTLDGALGGTVTLQLGYPPARPVVSCQAADYENFSCTWSPSQISGLPTRYLTSYRKKTVLGADSQRRSPSTGPWPCPQDPLGAARCVVHGAEFWSQYRINVTEVNPLGASTRLLDVSLQSILRPDPPQGLRVESVPGYPRRLRASWTYPASWPCQPHFLLKFRLQYRPAQHPAWSTVEPAGLEEVITDAVAGLPHAVRVSARDFLDAGTWSTWSPEAWGTPSTGPAGQSGGGGGSGGGSGGGSVPGPPPGPPRVSPDPRAELDSTVLLTRSLLADTRQLAAQLRDKFPADGDHNLDSLPTLAMSAGALGALQLPGVLTRLRADLLSYLRHVQWLRRAGGSSLKTLEPELGTLQARLDRLLRRLQLLMSRLALPQPPPDPPAPPLAPPSSAWGGIRAAHAILGGLHLTLDWAVRGLLLLKTRL
modifications: Hyper IL-11 (IL-11RAIL-11 fusion)
ERK and JNK (non-canonical signaling) activation ([2]; 24 h): activated ERK and JNK in a dose-dependent manner | alanine transaminase (ALT) in the media ([2]; dose range, 24 h): dose-dependent increase | IL-11 secretion from HSCs (HSCs): secreted IL-11
